Experimental data taken from US20160108110A1 (Novartis, published 2016).

T1: Human ANGPTL4(26-406)-FLAG-His6-Avi (human, UniProt Q9BY76 24-406, biotin on the C-terminal Avi tag in the biotinylated preparations (immobilised form in SET, ELISA and Octet))
T1 construct: also called full-length human ANGPTL4; hANGPTL4
T1 sequence: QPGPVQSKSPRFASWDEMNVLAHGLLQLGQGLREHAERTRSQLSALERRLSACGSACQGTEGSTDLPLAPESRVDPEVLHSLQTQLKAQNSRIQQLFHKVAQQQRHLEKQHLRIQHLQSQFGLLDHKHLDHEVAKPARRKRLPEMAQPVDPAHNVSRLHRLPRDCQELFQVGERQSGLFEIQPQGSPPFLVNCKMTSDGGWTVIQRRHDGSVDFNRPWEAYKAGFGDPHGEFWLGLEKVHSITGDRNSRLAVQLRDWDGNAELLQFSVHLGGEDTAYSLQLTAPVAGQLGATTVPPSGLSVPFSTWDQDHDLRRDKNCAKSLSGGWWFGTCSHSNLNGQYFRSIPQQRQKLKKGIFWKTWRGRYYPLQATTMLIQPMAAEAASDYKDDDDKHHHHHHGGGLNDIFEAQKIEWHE

T2: Mouse ANGPTL4(26-410)-FLAG-His6-Avi (mouse, UniProt Q9Z1P8 24-410, biotin on the C-terminal Avi tag in the immobilised form)
T2 sequence: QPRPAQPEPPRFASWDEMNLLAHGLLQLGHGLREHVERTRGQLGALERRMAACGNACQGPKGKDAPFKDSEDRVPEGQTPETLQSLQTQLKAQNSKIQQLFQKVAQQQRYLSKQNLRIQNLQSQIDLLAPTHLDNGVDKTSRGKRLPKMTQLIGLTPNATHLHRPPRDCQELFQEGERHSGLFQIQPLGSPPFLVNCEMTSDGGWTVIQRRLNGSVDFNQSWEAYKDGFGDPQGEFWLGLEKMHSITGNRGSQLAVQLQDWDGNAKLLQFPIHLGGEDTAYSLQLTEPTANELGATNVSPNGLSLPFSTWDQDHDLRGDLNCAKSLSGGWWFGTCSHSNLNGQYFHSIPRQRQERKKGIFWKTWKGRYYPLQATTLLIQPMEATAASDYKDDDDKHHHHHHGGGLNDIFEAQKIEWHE

B1: MOR022765 (antibody, human IgG1, lambda, V domains shown)
VH: EVQLVQSGAEVKKPGESLKISCKGSGYSFSTYWISWVRQMPGKGLEWMGIIDPSSSDTRYSPSFQGQVTISADKSISTAYLQWSSLKASDTAMYYCARVYGYVYMDVWGQGTLVTVSS
VL: SYELTQPLSVSVALGQTARITCSGDNLGKKYAYWYQQKPGQAPVLVIYDKTKRPSGIPERFSGSNSGNTATLTISRAQAGDEADYYCASYDWYSSSYVFGGGTKLTVLG
notes: human IgG1
B2: MOR021792 (antibody, human IgG1, lambda, V domains shown)
VH: QVQLLESGGGLVQPGGSLRLSCAASGFTFSDYAMDWVRQAPGKGLEWVSKISYDGSYTYYADSVKGRFTISRDNSKNTLYLQMNSLRAEDTAVYYCARPSMSYYIIPAGFDVWGQGTLVTVSS
VL: DIELTQPPSVSVSPGQTASITCSGDALGVKRASWYQQKPGQAPVLVIYKDNNRPSGIPERFSGSNSGNTATLTISGTQAEDEADYYCSVRTWSMNLYVFGGGTKLTVLG
B3: MOR021798 (antibody, human IgG1, lambda, V domains shown)
VH: QVQLLESGGGLVQPGGSLRLSCAASGFTFSDYALHWVRQAPGKGLEWVSRISYMGSSTYYADSVKGRFTISRDNSKNTLYLQMNSLRAEDTAVYYCAREHYYSSPMGGVAVDNWGQGTLVTVSS
VL: DIVLTQPPSVSGAPGQRVTISCSGSSSNIGYNTVSWYQQLPGTAPKLLIYSNNIRPSGVPDRFSGSKSGTSASLAITGLQAEDEADYYCSSWDFLIKSLVFGGGTKLTVLG
notes: human IgG1

Legend:
[1] = molecular target: T1, Human ANGPTL4(26-406)-FLAG-His6-Avi; assay: SET assay (solution equilibrium titration, MSD), IgG
[2] = molecular target: T2, Mouse ANGPTL4(26-410)-FLAG-His6-Avi; assay: as above
[3] = molecular target: T1, Human ANGPTL4(26-406)-FLAG-His6-Avi; assay: cell-based or functional assay
[4] = molecular target: T1, Human ANGPTL4(26-406)-FLAG-His6-Avi; assay: ForteBio Octet, biotinylated antigen on streptavidin sensor, antibody in solution
Description: Dissociation constants (KD) were determined for selected antibodies of the invention by using an Octet (ForteBio) kinetic binding assay. ForteBio 10× Kinetics Buffer (ForteBio, catalog number 18-5032) was diluted 10-fold with DPBS (Life Technologies, catalog number 14190-136), and the resulting solution was added (0.2 ml per well) to a 96-well plate (Greiner, catalog number 65520). Streptavidin sensors (ForteBio, catalog number 18-5020) were immersed in the solution and equilibrated for at least 10 min at room temperature. In a second 96-well plate (Greiner, catalog number 65520), sensors were washed in 1× Kinetics buffer, and then immersed in 200 ul of 25 nM biotinylated human ANGPTL4 or a biotinylated reference protein (for background substraction) for 1000 sec […] at room temperature. The sensors were then washed in 1× Kinetics buffer for 120 sec, and immersed in 200 ul of ANGPTL4 antibody diluted in 1× Kinetics buffer at various concentrations (serial 2-fold dilutions ranging from 25 nM to 0.4 nM), and antibody association was monitored for 480 seconds. The sensors were then transferred to a well containing 200 ul 1× Kinetics buffer, and antibody dissociation was monitored for 1200 seconds. Background-corrected association and dissociation curves were globally fitted by Octet Software (ForteBio) to generate association (kₒₙ) and dissociation (koff) rate constants, which in turn were used to calculate equilibrium dissociation constants (KD).

Binder	Kd [1] [nM]	Kd [2] [nM]	Reversal of human ANGPTL4 inhibition of human LPL EC50 [3] [nM]	Kd [4] [nM]	koff [4] [s⁻¹]	kon [4] [M⁻¹ s⁻¹]
B1	0.01					
B2	0.01	0.005	1	0.184	6.5e-05	250000
B3	0.093	0.517	2	0.444	9.9e-05	220000
